Test [1] addresses Recombinant neuraminidase (N2) from H3N2 A/Tanzania/205/2010 with S245N and S247T mutations (influenza A virus H3N2 A/Tanzania/205/2010). As to the kind of experiment: cryo-EM structure.
The target in test [2] is Recombinant neuraminidase (N2) from H3N2 A/Tanzania/205/2010 (influenza A virus H3N2 A/Tanzania/205/2010). Put plainly: cryo-EM structure.

As for “Recombinant neuraminidase (N2) from H3N2 A/Tanzania/205/2010 with S245N and S247T mutations (enzyme)”, the stoichiometry N (in general, a count of units in the complex or per binding partner) in test [1] stood at 4. For the substance “Recombinant neuraminidase (N2) from H3N2 A/Tanzania/205/2010 (enzyme)”, the stoichiometry N in test [2] came to 4.

Source of the values: paper PMC10266979.
